According to patent US20260284219A1, “ANTIBODY CONJUGATE, AND USES THEREOF” (Acepodia Biotechnologies, Ltd., priority 2024, published 2026):
pEC50: −log10 of the molar value.

What was measured:
[1] = system: human triple-negative breast cancer MDA-MB-231 cells; experiment: Cytotoxicity assay (CellTiter-Glo 2.0), MDA-MB-231; format: cell-based; conditions: for cytotoxicity against MDA-MB-231: atezolizumab conjugates, 0.01-500 nM for 6 days; for cancer cells killed compared with atezolizumab: MDA-MB-231, 6 days, FIG. 6B
Experimental: Each condition was performed in triplicate. On the harvesting day, the number of viable cells in each well were measured according to the CellTiter-Glo™ 2.0 Assay process.

[2] = Aggregation by size exclusion chromatography HPLC (SEC-HPLC); format: physicochemical; conditions: SEC-HPLC of DAR10 dual-payload antibody drug conjugates
[3] = biological target: His-tagged human PDL1 recombinant protein (Homo sapiens, UniProt Q9NZQ7); experiment: Binding affinity ELISA on plates coated with PDL1; conditions: for pEC50: N = 3; for EC50 of the conjugate relative to EC50 of atezolizumab: PDL1 binding; for PDL1 binding signal compared with atezolizumab: among the concentration range, signal at 450 nm
Experimental: The blocked His-tagged human PDL1 recombinant protein-coated white plate was then incubated with atezolizumab, atezolizumab-govitecan (DAR10), or the isotype control antibody at different concentrations at 37° C. for 1 hour. The unbound atezolizumab, atezolizumab-govitecan (DAR10), or the isotype control antibody was washed away with PBST.
The blocked His-tagged human PDL1 recombinant protein-coated white plate was then incubated with atezolizumab or atezolizumab-deruxtecan-vcMMAE (DAR 10) at different concentrations at 37° C. for 1 hour. The unbound atezolizumab or atezolizumab-deruxtecan-vcMMAE (DAR 10) was washed away with PBST.

Sequence of His-tagged human PDL1 recombinant protein (Q9NZQ7 19-290): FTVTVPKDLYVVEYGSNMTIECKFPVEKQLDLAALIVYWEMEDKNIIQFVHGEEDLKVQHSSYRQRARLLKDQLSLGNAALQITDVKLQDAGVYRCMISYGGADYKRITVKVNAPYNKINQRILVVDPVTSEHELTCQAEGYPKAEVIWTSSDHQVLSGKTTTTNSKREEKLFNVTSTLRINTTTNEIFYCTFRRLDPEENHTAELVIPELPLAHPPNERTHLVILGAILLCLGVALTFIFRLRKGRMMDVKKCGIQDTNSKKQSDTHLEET

Substance: atezolizumab-deruxtecan-vcMMAE (DAR 10): Atezolizumab with 8 deruxtecan on cysteines and 2 vcMMAE on light-chain lysines (DAR10)
- cytotoxicity against MDA-MB-231 [1]: better cytotoxicity
- protein aggregation [2]: resistant to protein aggregation
- pEC50 ([3]; Embodiment 2-3, FIG. 9): 8.81
- EC50 of the conjugate relative to EC50 of atezolizumab [3]: less than 2 times
- PDL1 binding signal compared with atezolizumab [3]: no significant difference of signal detection

Substance: atezolizumab-govitecan (DAR8): Atezolizumab with 8 govitecan conjugated to cysteines by procedure (A) only (DAR8)
- cancer cells killed compared with atezolizumab [1]: 25%

Substance: atezolizumab-govitecan (DAR10): Atezolizumab with 8 govitecan on light and heavy chain cysteines and 2 govitecan on light-chain lysines (DAR10)
- cancer cells killed compared with atezolizumab [1]: 50%
- cytotoxicity against MDA-MB-231 [1]: better cytotoxicity
- cytotoxicity against MDA-MB-231 ([1]; listed as PDP-PDL1 mab-govitecan): exhibits cytotoxicity
- protein aggregation [2]: resistant to protein aggregation
- pEC50 ([3]; Embodiment 1-3, FIG. 5): 9.12
- EC50 of the conjugate relative to EC50 of atezolizumab [3]: less than 2 times
- PDL1 binding signal compared with atezolizumab [3]: no significant difference of signal detection

Substance: atezolizumab: commercially available anti-PDL1 IgG1 antibody (DAR0) [reference compound]
- pEC50 ([3]; Embodiment 1-3, FIG. 5): 9.26
- pEC50 ([3]; Embodiment 2-3, FIG. 9): 8.85
